Paper doi:10.1101/2021.07.08.451649 (bioRxiv, 2021)

Target: SARS-CoV-2 HexaPro spike glycoprotein (SARS-CoV-2, ancestral (Wuhan-Hu-1), …, stabilised)
Experiment: cryo-EM structure

B1: PVI.V6-14 Fab (Fab, V domains shown)
VH: QVQLQESGPGLVKPSETLSLTCTVSGGSISSSSYYWGWIRQPPGKGLEWIGSIYYSGSTYYNPSLKSRVTISVDTSKNQFSLKLSSVTAADTAVYYCARCRPEYYFGSGSYLDFDY
VL: DIQMTQSPSSVSASVGDRVTITCRASQGISSWLAWYQQKPGKAPKLLIYAASSLQSGVPSRFSGSGSGTDFTLTISSLQPEDFATYYCQQANSFPLTFGGGTKVEIK
In the case of B1, the “stoichiometry N” value is reported as 2 Fabs per spike trimer.
